Data as given in paper PMC4895014.
Values joined by “and” are separate entries in the source; they are usually repeats but may differ in a detail not shown here. Equal values may be shown once.

Target: recombinant full-length H7 hemagglutinin of A/Anhui/1/2013 (H7N9) influenza virus (influenza A virus A/Anhui/1/2013 (H7N9))
Assay: […]; 500 ug/ml in PBS, […]

recombinant full-length H7 hemagglutinin of A/Anhui/1/2013 (H7N9) influenza virus (natural protein)
stoichiometry N (units (HA molecules per complex)): 6 and 7 and 8
